Stoichiometry N, hemolytic activity on rabbit erythrocytes, decrease against Gh-TDH^WT and hemolytic activity on rabbit erythrocytes, drop against Gh-TDH^WT data for five substances are collected here from article PMC6614540.

For assay [1], the target named is Grimontia hollisae thermostable direct hemolysin, wild type (Grimontia hollisae). Put plainly: AUC; 1 mg/mL protein in 20 mM Tris-HCl pH 7.2, 42,000 rpm, 20 °C, 280 nm; c(s) distribution and apparent molecular mass.
In assay [2] the target is Gh-TDH Y53D mutant (Grimontia hollisae). Put plainly: native gel or EMSA; native PAGE, 10% polyacrylamide gel, no SDS, 4 °C, running buffer 90 mM Tris-base, 2.5 mM EDTA, 80 mM boric acid pH 8.0, 90 V for 3 h, Coomassie stain. On the technique in general: A gel shift assay detects complexes by their altered migration in electrophoresis.
For assay [3] the target is unchanged.
The target is the same in assay [4]. Briefly: AUC; 1 mg/mL protein in 20 mM Tris-HCl pH 7.2, 42,000 rpm, 20 °C, 280 nm; c(s) distribution and apparent molecular mass.
Assay [5] has as its target Gh-TDH Y53D/F159D double mutant (Grimontia hollisae).
In assay [6] the target is Gh-TDH F159D mutant (Grimontia hollisae). Put plainly: native gel or EMSA; native PAGE, 10% polyacrylamide gel, no SDS, 4 °C, running buffer 90 mM Tris-base, 2.5 mM EDTA, 80 mM boric acid pH 8.0, 90 V for 3 h, Coomassie stain.
Assay [7] shares this target.
Assay [8] has the same target. Briefly: AUC; 1 mg/mL protein in 20 mM Tris-HCl pH 7.2, 42,000 rpm, 20 °C, 280 nm; c(s) distribution and apparent molecular mass.
Assay [9] concerns the target Gh-TDH D78A mutant (Grimontia hollisae). Briefly: native gel or EMSA; native PAGE, 10% polyacrylamide gel, no SDS, 4 °C, running buffer 90 mM Tris-base, 2.5 mM EDTA, 80 mM boric acid pH 8.0, 90 V for 3 h, Coomassie stain.

One may read the stoichiometry N as a count of units in the complex or per binding partner. For the substance “Grimontia hollisae thermostable direct hemolysin, wild type (natural protein)”, the stoichiometry N in [1] was 4. Consider Gh-TDH Y53D mutant (natural protein), for which the stoichiometry N in assay [2] and in assay [4] was 2 in each case. In assay [3], this substance came in with a hemolytic activity on rabbit erythrocytes, decrease against Gh-TDH^WT of 20 fold. For the substance “Gh-TDH Y53D/F159D double mutant (natural protein)”, in assay [5], the hemolytic activity on rabbit erythrocytes, drop against Gh-TDH^WT worked out at 200 fold. Gh-TDH F159D mutant (natural protein): the stoichiometry N in assay [6] and in assay [8] was 2 throughout. In assay [7], this substance showed a hemolytic activity on rabbit erythrocytes, decrease against Gh-TDH^WT of 10 fold.

In assay [9], Gh-TDH D78A mutant (natural protein) yielded a stoichiometry N of 4.
